# Laboratory results published in the supplement of paper PMC12764529.
# ± gives the half width of the 95% confidence interval.
# Legend:
# [1] = folding stability dG unfold from trypsin proteolysis; higher = more stable
# Summary of the method: (§1)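 Bayesian fitting of sequencing counts gave K50 for each design. Unfolding free energy followed by setting this against a sequence-predicted unfolded-state K50 and a shared folded-state K50, either per protease or with trypsin and chymotrypsin combined. The designs, under 80 residues and lacking cysteine, were digested in a PA-tagged cDNA display format at 11 threefold-diluted protease concentrations and without protease, and only those with AlphaFold2 dimer inter-PAE above 15 were kept.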
# [2] = folding stability dG unfold (combined trypsin and chymotrypsin); higher = more stable
# Summary of the method: as §1
# [3] = folding stability dG unfold from chymotrypsin proteolysis; higher = more stable
# Summary of the method: as §1
Sequence,folding stability dG unfold [1],folding stability dG unfold [2],folding stability dG unfold [3]
SAGGSAGGMKIEIIEEKDGYIVLRVSPEDLEALEKLGFEIVSVEEVEGELYIVIKVSPEALKALSAGGSAGG [r6_108_TrROS_Hall],3.58 ± 0.095 kcal/mol,3.55 ± 0.066 kcal/mol,3.5 ± 0.037 kcal/mol
SAGGSAENKTIKITFTFKNAKNAIFTINVEKGNKTYKITFNLSDNQELNIEVDYNNTKVSFSIYPASAGGSA [r15_414_TrMRF],3.94 ± 0.48 kcal/mol,4.74 ± 0.43 kcal/mol,5.35 ± 0.21 kcal/mol
SAGGMETWRIKVDGKEIEVTVEDGKITVTFADGTKVEITLEEGETPEEVAKRLAEELGADKVEIEKVPSAGG [r13_852_TrROS_Hall],3.38 ± 0.48 kcal/mol,3.3 ± 0.19 kcal/mol,3.31 ± 0.078 kcal/mol
SAGGSLRGVLFDPEGGRVYVLEYDPALGSFRVRPFPVPPVLPISREAAAEILRRELGLPREVVERLLASAGG [r13_824_TrMRF],2.58 ± 0.082 kcal/mol,3.15 ± 0.093 kcal/mol,3.438 ± 0.033 kcal/mol
SPIYVFIEKTNNKRTIMIQNPENGWWVEIKFNGGEITFPIDSVEDFLDELKDLGWPIEITKIRPLPPGQLSA [r9_1102_TrROS],2.79 ± 0.17 kcal/mol,3.16 ± 0.16 kcal/mol,3.32 ± 0.12 kcal/mol
SAGGSAGGSAGMYRVEIEIEMSKEQLEALKKNKNLKPGQKIDLKVKIKIEPVKLDKNGKLSAGGSAGGSAGG [r17_194_TrROS_Hall],1.57 ± 0.051 kcal/mol,2.32 ± 0.13 kcal/mol,2.43 ± 0.036 kcal/mol
SAGMTVTLTVSEAEFNALFGPDKDAEAIAAHLESQGYVIKSISTTSSTDPETGGRTLTITLDVEPPLVSAGG [r19_376_JUSTAS],3.29 ± 0.09 kcal/mol,3.54 ± 0.071 kcal/mol,3.603 ± 0.036 kcal/mol
SAGGSAGGSGFKIVKVDTETGYVYVEVPKSAEKELEKLPSVEKVEEKEDSVLYRLRIPPFAALSAGGSAGGS [r12_694_TrMRF],1.78 ± 0.069 kcal/mol,1.81 ± 0.19 kcal/mol,1.95 ± 0.086 kcal/mol
SAGGSAGGDYVKIEIWIPPGMPDAEELVDKMSNYGFEIKKIERDPKNNYVRVTIVFQIPPGAIKSAGGSAGG [r6_604_TrROS],1.67 ± 0.084 kcal/mol,2.26 ± 0.27 kcal/mol,2.43 ± 0.067 kcal/mol
SAGGSAGGSAGGEDPNLKSKTITKKVEKGKLDSSKNITDSSGNTSIITVENNTITITIVSSAGGSAGGSAGG [r7_97_JUSTAS],-0.215 ± 0.31 kcal/mol,1.03 ± 0.2 kcal/mol,1.66 ± 0.049 kcal/mol
SAGGSAGGSAGIIVRLPDGGWLIIDITMTRKYPPPDGKPKKVEFEFTIIISPKSGKIRIVSAGGSAGGSAGG [r11_271_TrROS],2.94 ± 0.2 kcal/mol,3.01 ± 0.26 kcal/mol,3.21 ± 0.15 kcal/mol
SAGGSAGGSEPVTVMFWFDSPEEIDELIDELKGAGIKKVEMEPFPGRYWLTITVDGAEIHIMFSAGGSAGGS [r12_846_TrROS],2.45 ± 0.067 kcal/mol,3.29 ± 0.14 kcal/mol,3.786 ± 0.031 kcal/mol
SAGGSAGGSEKKFKIVSVKVEYNKETGTVTIEVEIYDEKTGKLVLKATITINKNGELKITLEPSAGGSAGGS [r12_115_TrROS_Hall],3.9 ± 0.45 kcal/mol,> 6 kcal/mol,5.26 ± 0.46 kcal/mol
SAGGTAEEIAEKVRDIFQDNGYPIEVEPRRWDPNNYVTWRMRMPGWSIEIQWDPDDLEVEIEIEPMPSAGGS [r8_157_TrROS],2.47 ± 0.073 kcal/mol,3.24 ± 0.2 kcal/mol,3.71 ± 0.11 kcal/mol
SAGGSAGGTLTIDELKELFPDVTEVKIEEKEETYTDKNGKKRKVKTKVIKVKVNGKEVTIEVKESAGGSAGG [r6_138_TrROS_Hall],1.96 ± 0.05 kcal/mol,1.25 ± 0.19 kcal/mol,0.534 ± 0.13 kcal/mol
SAGGSAGGSAREPPEAELVDERERTRPDGRPYTIAILRNPRDPREYLRIPGLGEWYPLDKLSAGGSAGGSAG [r3_181_TrMRF],-0.574 ± 0.28 kcal/mol,0.126 ± 0.12 kcal/mol,0.431 ± 0.22 kcal/mol
SAGGSAGGSAPETSLTSTFEFRFEVDGELYAVRIERRVLLSADGDLRVETRIEIIPIPPDVPASAGGSAGGS [r12_927_TrMRF],3.72 ± 0.13 kcal/mol,4.79 ± 0.11 kcal/mol,5.1 ± 0.12 kcal/mol
SIMIMIPPGEEIEITIEKLKDVEVMIFNNGKVREQRVPPGEEIKFELPPGAKGFMIMIKGPNGKAQMITLSA [r9_143_TrROS],2.74 ± 0.25 kcal/mol,2.66 ± 0.4 kcal/mol,2.75 ± 0.081 kcal/mol
SAGGSAGGSKIKIIVPKEKEEEAERLAKELKEKGEIPEVEIEVVESEEEAKELEEKADLVIVVSAGGSAGGS [r12_679_TrROS_Hall],-0.562 ± 0.43 kcal/mol,0.805 ± 0.31 kcal/mol,1.11 ± 0.19 kcal/mol
SVVRLPNGEWFEVDGRLVRVTVDEETGEIVDVEVYEVTVEEPPPPPPPLEVTVTVEPDAPPGATITITVTSA [r9_90_TrROS_Hall],1.8 ± 0.13 kcal/mol,1.5 ± 0.27 kcal/mol,1.48 ± 0.12 kcal/mol
SAGGKKKKPERVEVTIVLPPEILEAIKAGKPLTKEEIAKLLGLPPGAEIKIERREDGYLVIKITLPKSAGGS [r16_679_TrROS_Hall],1.61 ± 0.03 kcal/mol,2.8 ± 0.069 kcal/mol,3.19 ± 0.044 kcal/mol

Sequence,folding stability dG unfold [1],folding stability dG unfold [2],folding stability dG unfold [3]
SGMTSSFEVSPVGDILVVTVSLHFPGLGLSSTASATQDPSSDSMSLDLTIPFPPEDLAPLSLSLSLKPPESA [r9_887_JUSTAS],2.61 ± 0.12 kcal/mol,2.87 ± 0.23 kcal/mol,3.62 ± 0.27 kcal/mol
SAGGELPLSDITVESESPVTGGSWTVTLEVPSLGLRITVPAAELGAVAASTPGVATSLSPVSPAEPASAGGS [r16_61_JUSTAS],-0.251 ± 0.11 kcal/mol,0.225 ± 0.091 kcal/mol,0.454 ± 0.093 kcal/mol
SAGGSAGGSAGREIADEIKDILQEKGFEIKDIEVTRPPNGYPMVEITVRHDNGKKWTIWISAGGSAGGSAGG [r11_780_TrROS],1.5 ± 0.038 kcal/mol,1.76 ± 0.099 kcal/mol,1.91 ± 0.095 kcal/mol
SAGGSAGGSKPPVKTIPRWIPFPPGQTPNELVDELRKLFPPGMEVDVEYDPEPGYVRVSITFRSAGGSAGGS [r12_12_TrROS],2.19 ± 0.042 kcal/mol,2.06 ± 0.097 kcal/mol,1.86 ± 0.047 kcal/mol
SAGGSAGGSAGGPIITPKIRDALKAAGKDFSEEEIRGIAEGIAAIAIEKGYPDVVITADASAGGSAGGSAGG [r7_512_TrMRF],-0.259 ± 0.06 kcal/mol,0.669 ± 0.045 kcal/mol,0.938 ± 0.018 kcal/mol
SRKFLNDPNIDKVEPTIVIPMSPEERKELAQNLANGIYNYLREHGWPLPPNIEIKIIPFPSPEQMKKMMKSA [r9_204_TrROS],0.6 ± 0.15 kcal/mol,0.901 ± 0.13 kcal/mol,1.09 ± 0.17 kcal/mol
SAGGSAGGSAGGSTPTPDGSPVEITLPDGTVVTFDPATNSITIATRTPDSVSTTPIPAAASAGGSAGGSAGG [r7_527_JUSTAS],1.34 ± 0.031 kcal/mol,1.2 ± 0.035 kcal/mol,1.08 ± 0.037 kcal/mol
SAGGAVELRIVVRRTRPDPLTGRPVEEELTLTVPVDLDPERGVSAAEVARALAAALPDEVREVRAEPGSAGG [r13_335_TrMRF],0.51 ± 0.17 kcal/mol,0.632 ± 0.12 kcal/mol,0.705 ± 0.08 kcal/mol
SAGGSMELYTKSPDGKLFKVKIVNPGNAKDKVLFEAEVFDPKNNKPIGRFTGVVDPKTGKIISIKPSAGGSA [r2_324_TrMRF],1.6 ± 0.035 kcal/mol,1.64 ± 0.13 kcal/mol,1.68 ± 0.083 kcal/mol
SAGGSKIQISIWEDPENDYTWVTIWFPDDEELVDFFVEDIADLGVKKVETERFPDNGWRRITILIRSAGGSA [r2_358_TrROS],2.43 ± 0.063 kcal/mol,2.97 ± 0.12 kcal/mol,3.27 ± 0.066 kcal/mol
SAGGMKYVLKIEITFKKPSGPPEKKIILVEFDPDFPDIPLEEAAERVLNEIAPKYGDEAKVSEISPVSAGGS [r8_101_TrMRF],1.3 ± 0.054 kcal/mol,2 ± 0.13 kcal/mol,2.35 ± 0.066 kcal/mol
SAMTLTVRVKATPEQLKEALEEETGAKVTIEEEEDGVLTITVEVSEEEREKLAEALKKLPGLEIEIEEESAG [r14_521_TrROS_Hall],1.94 ± 0.067 kcal/mol,1.9 ± 0.091 kcal/mol,1.89 ± 0.026 kcal/mol
SAGGSSMTTKTINLSLPNGVEELTITITTPPDGTYNATFYFPKTGKKTTHNFTSEEEIEKFIEELIKESAGG [r13_857_JUSTAS],2.97 ± 0.086 kcal/mol,4.01 ± 0.089 kcal/mol,4.291 ± 0.036 kcal/mol
SSIPLDVPPGERVVRKGVFPDGSELTATYDPTTGRWTVTYYPPDGSVRTSVVPGAALASLPPGFTETRLESA [r9_1110_JUSTAS],1.45 ± 0.043 kcal/mol,2.02 ± 0.14 kcal/mol,2.28 ± 0.034 kcal/mol
SAGGSGTMKVEVSKDGGKLTVKSEFPSGGYGVSDDSGKLATLEYDPEKGTTTVTFPDGTVRTLTYPGSAGGS [r16_602_JUSTAS],0.0159 ± 0.11 kcal/mol,0.501 ± 0.12 kcal/mol,0.647 ± 0.089 kcal/mol
SAGGEDELRPITPEELKALFDRLAAAHGLESEILEVEEPEDVVIVTARIRHGDTVLEVTVAFPVAKDPSAGG [r13_652_TrMRF],2.65 ± 0.14 kcal/mol,2.91 ± 0.15 kcal/mol,2.97 ± 0.1 kcal/mol
SAGGSAGGSPLPPEVYKIRLKVDGKWYEALARVKPDGTVEVFLKDTGKTFTVPLKDLEIEKLDSAGGSAGGS [r12_782_TrROS_Hall],3.25 ± 0.19 kcal/mol,3.35 ± 0.14 kcal/mol,3.51 ± 0.064 kcal/mol
SAGGSAEVERFEIPVTSEEELEKLIEELKKAPGVLSVEKTPDGTLVVTVPKGKSDIVEEAAKKAGLSAGGSA [r15_834_JUSTAS],2.7 ± 0.12 kcal/mol,2.97 ± 0.09 kcal/mol,3.17 ± 0.11 kcal/mol
SAMEITIEKDENGNIRITLKLDGAEIIEEKEVPPGEKEKTIKIKVDGKVLELTIKDGKIEIKEVSPEDLSAG [r14_403_TrROS_Hall],2.93 ± 0.14 kcal/mol,3.44 ± 0.13 kcal/mol,3.55 ± 0.1 kcal/mol
SAGGSAGGSAGGMPDGAEFELEFEFELPDGYRVRLRIRARIGPDGVVEFEVEVEVYEVPDSAGGSAGGSAGG [r7_125_TrMRF],4.58 ± 0.15 kcal/mol,5.01 ± 0.13 kcal/mol,5.13 ± 0.12 kcal/mol
SAGGMTITFPEGITITFSPDNTATVTINFPGNPLTLTLNATTLEEVIETAKKAAEEFRKPPPKLVLKVSAGG [r13_896_JUSTAS],1.13 ± 0.035 kcal/mol,1.6 ± 0.096 kcal/mol,1.72 ± 0.1 kcal/mol
